Substrate in this series: N[C@@H](Cc1ccc(O)cc1)C(=O)O
Kind of series: purified protein. As to conditions: amino acid activation, ATP, no tRNA, 37°C, near-cognate amino acid.

B1: M. mobile PheRS (MmPheRS) (Mycoplasma mobile 163K) (protein)
chain: MKKNLTNLRIETLEDLKIAKSNFLNNDLELKQLMNDLKLASKEQKASIGQKINFYKQEIEQFFLTKKEEIEKKEVLKKIQDEFIDVFEEVNFSSSLHPLTLIENRFRTWFLNNGYYETEGSEITTDKINFELLNIPKDHPSRDMQDSLYLEKEQNGDQLLLRTHNTGFSIIELIKNKNKAFSAFSIGKVYRNDEDDNTHSHQFSQVDVIVAGKYNFPNLMWLLKSLLSYVFEEEVKIRLRPSYFPFTEPSCEVDVFYKNKWIEVLGSGIIHENVMKAAGYTNDMNALAWGIGIERIAMIKYGIDNIREFYKNDIRFLKQFNLEIEKLEV
Turning to B1, the Km amounted to 3.9 ± 0.54 mM, the turnover number (kcat) amounted to 8 s⁻¹ and the specificity constant (kcat/Km) was determined as 2100 M⁻¹ s⁻¹.
